Results on 56 variants are retold here after the RNAGym collection of RNA variant scans (doi:10.7554/elife.90254).

The chains are these.
B1: LINE1-mini (parent)
chain: GGCAGAGCUCAACACAGCGUGGCAAAGUGGCUGUGGCUAGACUGCC

The series covers variants of B1. Nature of the series: self-cleavage, relative activity (ratio to wild type); higher = more cleavage; in vitro, sequencing; the parent is a self-cleaving ribozyme.
Regarding GUCAGAGCUCAACACAGCGUGGGAAAGUGGCUGUGGCUAGACUGCC [G2U C23G], the self-cleavage was found to be 0.04.

With GUCAGAGCUCAACACAGCGUGGUAAAGUGGCUGUGGCUAGACUGCC [G2U C23U], the self-cleavage came out at 0.15.

Take GUCAGAGCUCAACACAGCGUGGAAAAGUGGCUGUGGCUAGACUGCC [G2U C23A]: the self-cleavage stood at 0.16.

On to GCCAGAGCUCAACACAGCGUGGCAAAGUGGCUGGGGCUAGACUGCC [G2C U34G], for which the self-cleavage stood at 0.12.

On to GCCAGAGCUCAACACAGCGUGGCAAAGUGGCUGAGGCUAGACUGCC [G2C U34A], for which the self-cleavage came to 0.07.

For GCCAGAGCUCAACACAGCGUGGCAAAGUGGCUGCGGCUAGACUGCC [G2C U34C], the self-cleavage was determined as 0.06.

For GCCAGAGCUCAACACAGCGUUGCAAAGUGGCUGUGGCUAGACUGCC [G2C G21U], the self-cleavage came to 0.12.

In the case of GCCAGAGCUCAACACAGCGUAGCAAAGUGGCUGUGGCUAGACUGCC [G2C G21A], the self-cleavage worked out at 0.51.

On to GCCAGAGCUCAACACAGCGUCGCAAAGUGGCUGUGGCUAGACUGCC [G2C G21C], for which the self-cleavage turned out to be 0.25.

Turning to GUCUGAGCUCAACACAGCGUGGCAAAGUGGCUGUGGCUAGACUGCC [G2U A4U], the self-cleavage was determined as 0.08.

Take GUCCGAGCUCAACACAGCGUGGCAAAGUGGCUGUGGCUAGACUGCC [G2U A4C]: the self-cleavage was found to be 0.07.

For GUCGGAGCUCAACACAGCGUGGCAAAGUGGCUGUGGCUAGACUGCC [G2U A4G], the self-cleavage worked out at 0.12.

For GUCAGAGCUCAACACGGCGUGGCAAAGUGGCUGUGGCUAGACUGCC [G2U A16G], the self-cleavage came to 0.05.

Consider GUCAGAGCUCAACACUGCGUGGCAAAGUGGCUGUGGCUAGACUGCC [G2U A16U], for which the self-cleavage was 0.02.

Turning to GUCAGAGCUCAACACCGCGUGGCAAAGUGGCUGUGGCUAGACUGCC [G2U A16C], the self-cleavage stood at 0.13.

With GUCAGAGCUCAACUCAGCGUGGCAAAGUGGCUGUGGCUAGACUGCC [G2U A14U], the self-cleavage stood at 0.04.

Take GUCAGAGCUCAACCCAGCGUGGCAAAGUGGCUGUGGCUAGACUGCC [G2U A14C]: the self-cleavage is 0.01.

For the variant GUCAGAGCUCAACGCAGCGUGGCAAAGUGGCUGUGGCUAGACUGCC [G2U A14G], the self-cleavage worked out at 0.08.

For GUCAGGGCUCAACACAGCGUGGCAAAGUGGCUGUGGCUAGACUGCC [G2U A6G], the self-cleavage was 0.03.

Regarding GUCAGUGCUCAACACAGCGUGGCAAAGUGGCUGUGGCUAGACUGCC [G2U A6U], the self-cleavage came out at 0.16.

GUCAGCGCUCAACACAGCGUGGCAAAGUGGCUGUGGCUAGACUGCC [G2U A6C]: the self-cleavage was 0.04.

Take GCCAGAGCUCAACACAGCGUGGCAAAGUGGCUGUGGCUAGACUUCC [G2C G44U]: the self-cleavage came to 0.14.

As to GCCAGAGCUCAACACAGCGUGGCAAAGUGGCUGUGGCUAGACUACC [G2C G44A], the self-cleavage came out at 0.17.

As to GCCAGAGCUCAACACAGCGUGGCAAAGUGGCUGUGGCUAGACUCCC [G2C G44C], the self-cleavage came to 0.18.

As for GUCAGAGCUCAUCACAGCGUGGCAAAGUGGCUGUGGCUAGACUGCC [G2U A12U], the self-cleavage was determined as 0.04.

In the case of GUCAGAGCUCAGCACAGCGUGGCAAAGUGGCUGUGGCUAGACUGCC [G2U A12G], the self-cleavage stood at 0.02.

As to GUCAGAGCUCACCACAGCGUGGCAAAGUGGCUGUGGCUAGACUGCC [G2U A12C], the self-cleavage came out at 0.02.

With GUCAGAGCUCAACACAGCGUGGCCAAGUGGCUGUGGCUAGACUGCC [G2U A24C], the self-cleavage stood at 0.07.

For the variant GUCAGAGCUCAACACAGCGUGGCUAAGUGGCUGUGGCUAGACUGCC [G2U A24U], the self-cleavage is 0.19.

Take GUCAGAGCUCAACACAGCGUGGCGAAGUGGCUGUGGCUAGACUGCC [G2U A24G]: the self-cleavage was 0.06.

Consider GUCAGAGCUCAACACAGCGUGGCAAAGUGGCUGUGGCUAGUCUGCC [G2U A41U], for which the self-cleavage worked out at 0.08.

Turning to GUCAGAGCUCAACACAGCGUGGCAAAGUGGCUGUGGCUAGCCUGCC [G2U A41C], the self-cleavage was 0.02.

With GUCAGAGCUCAACACAGCGUGGCAAAGUGGCUGUGGCUAGGCUGCC [G2U A41G], the self-cleavage was determined as 0.09.

Consider GCCAGAGCUCAACACAGCGUGGCAAAGUGUCUGUGGCUAGACUGCC [G2C G30U], for which the self-cleavage worked out at 0.29.

Regarding GCCAGAGCUCAACACAGCGUGGCAAAGUGCCUGUGGCUAGACUGCC [G2C G30C], the self-cleavage turned out to be 0.23.

Regarding GCCAGAGCUCAACACAGCGUGGCAAAGUGACUGUGGCUAGACUGCC [G2C G30A], the self-cleavage was determined as 0.24.

As to GCCAGAGCUCAACACAGCGUGUCAAAGUGGCUGUGGCUAGACUGCC [G2C G22U], the self-cleavage is 0.23.

On to GCCAGAGCUCAACACAGCGUGACAAAGUGGCUGUGGCUAGACUGCC [G2C G22A], for which the self-cleavage worked out at 0.15.

For the variant GCCAGAGCUCAACACAGCGUGCCAAAGUGGCUGUGGCUAGACUGCC [G2C G22C], the self-cleavage worked out at 0.05.

On to GUCAGAGCUGAACACAGCGUGGCAAAGUGGCUGUGGCUAGACUGCC [G2U C10G], for which the self-cleavage is 0.02.

As for GUCAGAGCUUAACACAGCGUGGCAAAGUGGCUGUGGCUAGACUGCC [G2U C10U], the self-cleavage turned out to be 0.03.

GUCAGAGCUAAACACAGCGUGGCAAAGUGGCUGUGGCUAGACUGCC [G2U C10A]: the self-cleavage is 0.02.

As for GUCAGAGCUCAACACAGCGUGGCAAGGUGGCUGUGGCUAGACUGCC [G2U A26G], the self-cleavage stood at 0.13.

As to GUCAGAGCUCAACACAGCGUGGCAACGUGGCUGUGGCUAGACUGCC [G2U A26C], the self-cleavage is 0.09.

GUCAGAGCUCAACACAGCGUGGCAAUGUGGCUGUGGCUAGACUGCC [G2U A26U]: the self-cleavage was 0.11.

Turning to GCCAGAGCUCAACACAGCGUGGCAAAGAGGCUGUGGCUAGACUGCC [G2C U28A], the self-cleavage was determined as 0.23.

As to GCCAGAGCUCAACACAGCGUGGCAAAGGGGCUGUGGCUAGACUGCC [G2C U28G], the self-cleavage was found to be 0.05.

For the variant GCCAGAGCUCAACACAGCGUGGCAAAGCGGCUGUGGCUAGACUGCC [G2C U28C], the self-cleavage worked out at 0.09.

Consider GCCAGAGCUCAACACACCGUGGCAAAGUGGCUGUGGCUAGACUGCC [G2C G17C], for which the self-cleavage was determined as 0.05.

As for GCCAGAGCUCAACACAUCGUGGCAAAGUGGCUGUGGCUAGACUGCC [G2C G17U], the self-cleavage stood at 0.06.

For the variant GCCAGAGCUCAACACAACGUGGCAAAGUGGCUGUGGCUAGACUGCC [G2C G17A], the self-cleavage stood at 0.08.

Take GUCAGAGCUCAACACAGCGUGGCAGAGUGGCUGUGGCUAGACUGCC [G2U A25G]: the self-cleavage was 0.03.

For GUCAGAGCUCAACACAGCGUGGCAUAGUGGCUGUGGCUAGACUGCC [G2U A25U], the self-cleavage came out at 0.08.

Consider GUCAGAGCUCAACACAGCGUGGCACAGUGGCUGUGGCUAGACUGCC [G2U A25C], for which the self-cleavage is 0.05.

For the variant GCCAGAGCUCAACACAGCGUGGCAAAGUGGCUGUGGCUAGACGGCC [G2C U43G], the self-cleavage stood at 0.04.

For GCCAGAGCUCAACACAGCGUGGCAAAGUGGCUGUGGCUAGACCGCC [G2C U43C], the self-cleavage was found to be 0.15.
